Substitutions are numbered along the chain they refer to. Numbered stars: 1 amine (or outer) side, 2 acyl side, 3 side chain; on linkers, the order of the positions; unused ones are H or OH. Square brackets hold non-standard residues; d marks the D form. Side chains are listed from the residue outwards. Ends that are not written are not given here. γGlu = O=C(O)[C@H](CCC(=O)[*:2])N[*:1]; x53 = not defined here; Aib = CC(C)(N)C(=O)O
B1: SEQ ID NO: 6 (peptide)
peptide: HXQGTFTSDLSKQKESRRAQLFIEWLKAGGPSSGAPPPSK
modifications: dSer at 2; K(γE-x53) at 14; K(γE-x53) at 40; C-terminal NH2
B2: SEQ ID NO: 87 (peptide)
peptide: HXQGTFTSDLSKQKDERRAKDFIEWLKNGGPSSGAPPPS
modifications: dSer at 2; K(γE-x53) at 14; C-terminal NH2
B3: SEQ ID NO: 51 (peptide)
peptide: HXQGTFTSDLSKQKESRAAQDFIEWLKAGGPSSGAPPPS
modifications: dSer at 2; K(γE-x70) at 14; C-terminal NH2
B4: SEQ ID NO: 64 (peptide)
peptide: B3 peptide
modifications: dSer at 2; K(γE-x82) at 14; C-terminal NH2
B5: SEQ ID NO: 83 (peptide)
peptide: B3 peptide with A18R, A28E, A35R
modifications: dSer at 2; K(x53) at 14; C-terminal NH2
B6: SEQ ID NO: 57 (peptide)
peptide: B3 peptide
modifications: dSer at 2; K(γE-x60) at 14; C-terminal NH2
B7: SEQ ID NO: 76 (peptide)
peptide: B3 peptide with A18R, Q20X
modifications: dSer at 2; K(x53) at 14; Aib at 20; C-terminal NH2
B8: SEQ ID NO: 79 (peptide)
peptide: B3 peptide with A18R, A28X
modifications: dSer at 2; K(γE-x53) at 14; Aib at 28; C-terminal NH2
B9: SEQ ID NO: 82 (peptide)
peptide: B3 peptide with A18R, A28E, A35R
modifications: dSer at 2; K(γE-x53) at 14; C-terminal NH2
B10: SEQ ID NO: 91 (peptide)
peptide: B2 peptide with E16S, K20Q
modifications: dSer at 2; K(γE-x72) at 14; C-terminal NH2
B11: SEQ ID NO: 60 (peptide)
peptide: B3 peptide
modifications: dSer at 2; K(γE-x77) at 14; C-terminal NH2
B12: SEQ ID NO: 52 (peptide)
peptide: B3 peptide
modifications: dSer at 2; K(γE-γE-x70) at 14; C-terminal NH2
B13: SEQ ID NO: 72 (peptide)
peptide: B3 peptide with K14X, A18R
modifications: dSer at 2; Dab(γE-x53) at 14; C-terminal NH2
B14: SEQ ID NO: 68 (peptide)
peptide: B3 peptide with A18R, D21L
modifications: dSer at 2; K(γE-x53) at 14; C-terminal NH2
B15: SEQ ID NO: 55 (peptide)
peptide: B3 peptide
modifications: dSer at 2; K(γE-x74) at 14; C-terminal NH2
B16: SEQ ID NO: 73 (peptide)
peptide: B3 peptide with Q3H, A18R
modifications: dSer at 2; K(γE-x53) at 14; C-terminal NH2
B17: SEQ ID NO: 7 (peptide)
peptide: B3 peptide with R17K
modifications: dSer at 2; K(GABA-x53) at 14; C-terminal NH2
B18: SEQ ID NO: 70 (peptide)
peptide: B3 peptide with D21L
modifications: dSer at 2; K(γE-x53) at 14; C-terminal NH2
B19: SEQ ID NO: 58 (peptide)
peptide: B3 peptide
modifications: dSer at 2; K(GABA-x60) at 14; C-terminal NH2
B20: SEQ ID NO: 8 (peptide)
peptide: B2 peptide with E16S, K20Q
modifications: dSer at 2; K(γE-x70) at 14; C-terminal NH2
B21: SEQ ID NO: 59 (peptide)
peptide: B3 peptide
modifications: dSer at 2; K(γE-x76) at 14; C-terminal NH2
B22: SEQ ID NO: 10 (peptide)
peptide: B2 peptide with E16S, K20Q
modifications: dSer at 2; K(γE-x53) at 14; C-terminal NH(n-Propyl)
B23: SEQ ID NO: 65 (peptide)
peptide: B3 peptide
modifications: dSer at 2; K(γE-x70) at 14; C-terminal NH2
B24: SEQ ID NO: 89 (peptide)
peptide: B2 peptide with E16S, K20Q
modifications: dSer at 2; K(γE-x60) at 14; C-terminal NH2
B25: SEQ ID NO: 9 (peptide)
peptide: B3 peptide
modifications: dSer at 2; K(γE-x75) at 14; C-terminal NH2
B26: SEQ ID NO: 56 (peptide)
peptide: B3 peptide
modifications: dSer at 2; K(GABA-x74) at 14; C-terminal NH2
B27: SEQ ID NO: 92 (peptide)
peptide: B2 peptide with E16S, K20Q, G29T
modifications: dSer at 2; K(γE-x53) at 14; C-terminal NH2
B28: SEQ ID NO: 88 (peptide)
peptide: B2 peptide with D15E, E16K, K20Q
modifications: dSer at 2; K(γE-x53) at 14; C-terminal NH2
B29: SEQ ID NO: 63 (peptide)
peptide: B3 peptide
modifications: dSer at 2; K(γE-x81) at 14; C-terminal NH2
B30: SEQ ID NO: 90 (peptide)
peptide: B2 peptide with E16S, K20Q
modifications: dSer at 2; K(γE-x69) at 14; C-terminal NH2
B31: SEQ ID NO: 80 (peptide)
peptide: B2 peptide with E16S, K20Q, N28D
modifications: dSer at 2; K(γE-x53) at 14; C-terminal NH2
B32: SEQ ID NO: 54 (peptide)
peptide: B3 peptide
modifications: dSer at 2; K(βA-βA-x70) at 14; C-terminal NH2
B33: SEQ ID NO: 86 (peptide)
peptide: B3 peptide with E15D, R17Q, A28N, G29T
modifications: dSer at 2; K(γE-x53) at 14; C-terminal NH2
B34: SEQ ID NO: 62 (peptide)
peptide: B3 peptide
modifications: dSer at 2; K(γE-x80) at 14; C-terminal NH2
B35: SEQ ID NO: 67 (peptide)
peptide: B2 peptide with E16S, K20X, N28A
modifications: dSer at 2; K(γE-x53) at 14; Aib at 20; C-terminal NH2
B36: SEQ ID NO: 85 (peptide)
peptide: B3 peptide with A18R, A28K
modifications: dSer at 2; K(γE-x53) at 14; C-terminal NH2
B37: SEQ ID NO: 81 (peptide)
peptide: B2 peptide with E16S, K20Q, N28D
modifications: dSer at 2; K(x53) at 14; C-terminal NH2
B38: SEQ ID NO: 69 (peptide)
peptide: B3 peptide with A18R, D21L
modifications: dSer at 2; K(x53) at 14; C-terminal NH2
B39: SEQ ID NO: 66 (peptide)
peptide: B3 peptide
modifications: dSer at 2; K(x53) at 14; C-terminal NH2
B40: SEQ ID NO: 93 (peptide)
peptide: B2 peptide with E16S, K20Q, G29A
modifications: dSer at 2; K(γE-x53) at 14; C-terminal NH2
B41: SEQ ID NO: 71 (peptide)
peptide: B3 peptide with K14X, A18R
modifications: dSer at 2; Orn(γE-x53) at 14; C-terminal NH2
B42: SEQ ID NO: 53 (peptide)
peptide: B3 peptide
modifications: dSer at 2; K(GABA-x70) at 14; C-terminal NH2
B43: SEQ ID NO: 61 (peptide)
peptide: B3 peptide
modifications: dSer at 2; K(γE-x79) at 14; C-terminal NH2
B44: SEQ ID NO: 77 (peptide)
peptide: H[Aib]QGTFTSDLSKQK([γGlu-x53])ESRRAQDFIEWLKAGGPSSGAPPPS-NH2
modifications: reading uncertain
B45: GLP-1(7-36)-amide (peptide)
peptide: HAEGTFTSDVSSYLEGQAAKEIAWLVKGR-NH2

Molecular target: human GLP-1 receptor (human, UniProt P43220 24-463)
Assay: cell-based or functional assay

Binder | EC50 hGLP-1R (cAMP)
B1 | 141 pM
B2 | 3 pM
B3 | 2.7 pM
B4 | 3.1 pM
B5 | 53.9 pM
B6 | 45 pM
B7 | 44.9 pM
B8 | 23.3 pM
B9 | 11.7 pM
B10 | 15.1 pM
B11 | 38.4 pM
B12 | 1.9 pM
B13 | 25.9 pM
B14 | 7.9 pM
B15 | 5.4 pM
B16 | 4.1 pM
B17 | 3.5 pM
B18 | 6.5 pM
B19 | 45.6 pM
B20 | 6.3 pM
B21 | 7.9 pM
B22 | 9.2 pM
B23 | 5 pM

Binder | EC50 hGLP-1R (cAMP)
B24 | 35.6 pM
B25 | 2.2 pM
B26 | 4.5 pM
B27 | 26 pM
B28 | 2.4 pM
B29 | 4.9 pM
B30 | 8.8 pM
B31 | 5.8 pM
B32 | 4.8 pM
B33 | 4.9 pM
B34 | 3.9 pM
B35 | 15.7 pM
B36 | 8.1 pM
B37 | 48 pM
B38 | 44.8 pM
B39 | 8.4 pM
B40 | 10.7 pM
B41 | 20.5 pM
B42 | 5.4 pM
B43 | 5.3 pM
B44 | 4.3 pM
B45 | 0.7 pM

Molecular target: human glucagon receptor (human, UniProt P47871 26-477)
Assay: cell-based or functional assay

Chain of human glucagon receptor (P47871 26-477): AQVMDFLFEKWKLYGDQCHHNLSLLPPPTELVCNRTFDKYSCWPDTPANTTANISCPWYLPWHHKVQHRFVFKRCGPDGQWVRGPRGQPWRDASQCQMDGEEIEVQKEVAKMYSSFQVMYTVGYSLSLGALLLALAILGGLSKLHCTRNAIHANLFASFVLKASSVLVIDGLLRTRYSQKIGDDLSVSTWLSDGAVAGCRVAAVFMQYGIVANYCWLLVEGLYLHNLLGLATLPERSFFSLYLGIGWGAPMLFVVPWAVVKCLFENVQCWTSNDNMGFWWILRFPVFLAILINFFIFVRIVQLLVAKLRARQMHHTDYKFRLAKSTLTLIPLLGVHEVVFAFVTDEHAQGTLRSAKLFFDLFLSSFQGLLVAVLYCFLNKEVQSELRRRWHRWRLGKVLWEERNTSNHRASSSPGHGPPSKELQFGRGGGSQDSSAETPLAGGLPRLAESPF

Binder | EC50 hGlucagon-R (cAMP)
B1 | 18.9 pM
B2 | 1.3 pM
B3 | 3 pM
B4 | 6.9 pM
B5 | 41.3 pM
B6 | 8 pM
B7 | 162 pM
B8 | 7.5 pM
B9 | 4.7 pM
B10 | 8.9 pM
B11 | 19.3 pM
B12 | 2 pM
B13 | 386 pM
B14 | 5.7 pM
B15 | 15.8 pM
B16 | 1.7 pM
B17 | 20.7 pM
B18 | 40.9 pM
B19 | 15.1 pM
B20 | 2.3 pM
B21 | 6.8 pM
B22 | 1.7 pM

Binder | EC50 hGlucagon-R (cAMP)
B23 | 5.6 pM
B24 | 13.7 pM
B25 | 4.1 pM
B26 | 29.3 pM
B27 | 1 pM
B28 | 1.6 pM
B29 | 8.4 pM
B30 | 3.7 pM
B31 | 1 pM
B32 | 4 pM
B33 | 3.5 pM
B34 | 10.6 pM
B35 | 3 pM
B36 | 10.4 pM
B37 | 7.1 pM
B38 | 52.4 pM
B39 | 113 pM
B40 | 2.6 pM
B41 | 5.6 pM
B42 | 6.5 pM
B43 | 16 pM
B44 | 11.9 pM

— US20180185450A1 (Sanofi, published 2018)
